According to article PMC12237909, “Wheat endosperm-specific transcription factor TaDOF6 enhances grain development by regulating TaSWEET13h expression and facilitating sugar and gibberellin transport”:

Target: T1, TaDOF6 (Triticum aestivum (wheat; cultivar of …, UniProt A0A3B6LII6 1-338)
T1 sequence: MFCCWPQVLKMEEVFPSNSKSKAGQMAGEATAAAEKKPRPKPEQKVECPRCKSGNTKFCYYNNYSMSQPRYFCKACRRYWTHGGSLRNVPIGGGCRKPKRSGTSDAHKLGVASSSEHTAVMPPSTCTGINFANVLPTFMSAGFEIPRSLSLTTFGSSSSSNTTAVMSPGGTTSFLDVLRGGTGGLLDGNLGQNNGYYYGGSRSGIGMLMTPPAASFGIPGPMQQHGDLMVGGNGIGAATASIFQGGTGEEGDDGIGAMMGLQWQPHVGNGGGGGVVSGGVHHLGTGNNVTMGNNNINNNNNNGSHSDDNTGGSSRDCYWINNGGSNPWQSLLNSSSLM
Assay: EMSA; EMSA buffer, salt, pH and temperature not stated (gel as in Zhang et al., 2016); probes annealed 95 C to 25 C
Conditions: protein: recombinant; tags: His (pETMALc-H vector); label: biotin (printed at both ends of each strand); blunt

B1: TaSWEET13h promoter P-box probe (dsDNA)
DNA 1: ATTAAAGCTAAAGTGTACACCAAAGCGACAACTTTTG
DNA 2: CAAAAGTTGTCGCTTTGGTGTACACTTTAGCTTTAAT
binding result: binds
